Tests used:
[1] = molecular target: biotinylated peptide X-…(biotin), X = Y; assay: phage ELISA, biotinylated peptide on neutravidin; phage 10×
[2] = molecular target: biotinylated peptide X-…(biotin), X = F; assay: as above
[3] = molecular target: biotinylated peptide X-…(biotin), X = Y; assay: phage ELISA, biotinylated peptide on neutravidin
[4] = molecular target: biotinylated peptide X-…(biotin), X = F; assay: phage ELISA, biotinylated peptide on neutravidin

## Phage displayed wild-type E. coli ClpS (truncated wildtype ClpS polypeptide, FLAG-tagged, fused to phage coat protein p3) (from UniProt A7ZJU9 23-106)
[1]
  phage ELISA signal (A450): 1.08
[2]
  phage ELISA signal (A450): 1.81
[3]
  phage ELISA signal (A450): 1.08
[4]
  phage ELISA signal (A450): 1.81

Reference: US9566335
